From paper PMC11199706 come the findings set out here.

One may read the EC50 as the concentration giving half of the maximal effect.

In experiment [1] the target is NOPLight (human (NOPR part)). Briefly: other fluorescence titration; apparent; NOPLight on AAV-transduced cultured rat cortical neurons in HBSS, N/OFQ applied manually during confocal imaging (20x), normalised ΔF/F0 fitted with a three-parameter Hill equation.
Experiment [2] concerns the target NOPLight (human (NOPR part)). In words: fluorescence response of the sensor in acute brain slices; NOPLight expressed in the mouse arcuate nucleus (AAV), coronal slices perfused with aCSF pH 7.2, increasing N/OFQ (5 nM to 10 µM) bath-applied for 10 min each.
For experiment [3], the target named is NOPLight (human (NOPR part)). Briefly: fluorescence response of the sensor on cells (wash-off kinetics); NOPLight on HEK293T cells under constant perfusion with 37 °C HBSS, about 50 nL of 100 µM N/OFQ puffed onto the cells, mono-exponential decay fit.
Experiment [4] addresses NOPLight (human (NOPR part)). Briefly: fluorescence response of the sensor on cells (wash-off kinetics); NOPLight on HEK293T cells on coverslips, 37 °C HBSS, 500 nM N/OFQ bath-applied, perfusion turned on after 30 s, mono-exponential decay fit.
Experiment [5] addresses NOPLight (human (NOPR part)). In words: fluorescence response of the sensor in acute brain slices (off kinetics); NOPLight expressed in mouse brain (AAV), slices at 31 °C in aCSF, 50 nL of N/OFQ at 10, 50 or 500 nM puffed onto the slice.
Experiment [6] concerns the target NOPLight (human (NOPR part)). In words: fluorescence response of the sensor on cells (confocal imaging); sensor on transfected HEK293T cells in HBSS, ligand pipetted in at one concentration (1 µM where stated), ΔF/F0 of membrane pixels.
Experiment [7] concerns the target NOPLight (human (NOPR part)). Briefly: fluorescence response of the sensor on cells (confocal imaging); sensor on AAV-transduced cultured rat cortical neurons in HBSS, 1 µM N/OFQ, ΔF/F0 of membrane pixels.
Experiment [8] has as its target NOPLight (human (NOPR part)). In words: other fluorescence titration; apparent; NOPLight on transfected HEK293T cells in HBSS, N/OFQ applied manually during confocal imaging (20x), normalised ΔF/F0 fitted with a three-parameter Hill equation.
The target of experiment [9] is NOPLight (human (NOPR part)). In words: fluorescence response of the sensor on cells (line-scan confocal imaging, kinetics); NOPLight on HEK293T cells, 37 °C, N/OFQ applied in bolus with Red-Dextran dye, line scan at 800 Hz, mono-exponential association fit.

On to FGGFTGARKSARKLANQ [nociceptin/orphanin-FQ peptide], for which the EC50 in experiment [1] came to 42.8 nM. In experiment [2], this molecule gave a ΔF/F0 at 10 nM N/OFQ of 1.9% and a ΔF/F0 at 10 µM N/OFQ of 73%. The same molecule showed a τoff (localized puff application) in [3] of 29.9 s. The molecule also registered a τoff (bath application) in [4] of 57.1 s. In [5], this molecule gave a τoff at 10 nM N/OFQ of 30.9 s, a τoff at 50 nM N/OFQ of 41.1 s and a τoff at 500 nM N/OFQ of 53.1 s. The ΔF/F0 upon N/OFQ (1 µM) in experiment [6] turned out to be 388%. In experiment [7], this molecule displayed a ΔF/F0 upon N/OFQ (1 µM) of 378%. In addition, the EC50 in experiment [8] stood at 28.6 nM. The molecule further returned a τON (time constant of signal activation) in experiment [9] of 595 ms.
